Data: PMC2115152
Values joined by “and” are separate entries in the source; they are usually repeats but may differ in a detail not shown here. Equal values may be shown once.

Key:
Experiment in all cases: co-sedimentation
[1] = biological target: F-actin with 83-kD protein (rabbit | rat) (UniProt P68135)
F-actin (rabbit) = F-actin (rabbit) (UniProt P68135)
[2] = biological target: F-actin first mixed with low mol wt TMs (rabbit | rat) (UniProt P68135)
[3] = biological target: F-actin first mixed with high mol wt TMs (rabbit | rat) (UniProt P68135)

Chain of 83-kD nonmuscle caldesmon (Q62736 whole entry): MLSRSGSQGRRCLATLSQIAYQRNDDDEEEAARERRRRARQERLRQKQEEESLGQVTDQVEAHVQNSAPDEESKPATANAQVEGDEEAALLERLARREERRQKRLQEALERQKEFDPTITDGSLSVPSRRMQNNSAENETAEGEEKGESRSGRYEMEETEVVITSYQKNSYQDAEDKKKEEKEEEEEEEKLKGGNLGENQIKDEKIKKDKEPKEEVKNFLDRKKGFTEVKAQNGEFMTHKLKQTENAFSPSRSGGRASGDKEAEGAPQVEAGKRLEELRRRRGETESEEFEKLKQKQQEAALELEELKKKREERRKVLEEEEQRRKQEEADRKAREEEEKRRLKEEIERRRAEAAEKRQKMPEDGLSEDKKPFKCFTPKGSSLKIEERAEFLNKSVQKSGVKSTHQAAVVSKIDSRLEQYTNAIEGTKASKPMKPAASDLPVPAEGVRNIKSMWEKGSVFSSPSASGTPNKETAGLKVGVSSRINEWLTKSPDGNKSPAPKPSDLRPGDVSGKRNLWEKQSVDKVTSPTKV

high mol wt TMs (a mixture of TM-1 [40,000] and TM-2 [36,500])
fold increase of TM binding to actin against no 83-kD protein (50 mM KCl) [1]: 10 fold
percent of the TM mass bound to actin (50 mM KCl, no 83-kD protein) (F-actin (rabbit)): < 10%
percent of the TMs bound to actin (50 mM KCl, no 83-kD protein) (F-actin (rabbit)): 10%

low mol wt TMs (a mixture of TM-4 [32,400] and TM-5 [32,000])
Ka [1]: 1.5e+06 M⁻¹
molar ratio of TMs to sedimentable actin (0.06 mg/ml TMs, 83-kD protein added) [1]: 14 actin per TM
Ka (F-actin (rabbit)): 440000 M⁻¹
TM bound to actin (0.12 mg/ml TMs, no 83-kD protein) (F-actin (rabbit)): 0.4 µmol
molar ratio of TMs to sedimentable actin (0.06 mg/ml TMs, no 83-kD protein) (F-actin (rabbit)): 157 actin per TM
molar ratio of TMs to sedimentable actin (0.12 mg/ml TMs, no 83-kD protein) (F-actin (rabbit)): 29 actin per TM
percent of actin saturated with TMs (0.06 mg/ml TMs, no 83-kD protein) (F-actin (rabbit)): 3% and 4%
percent of actin saturated with TMs (0.12 mg/ml TMs, no 83-kD protein) (F-actin (rabbit)): 20%
percent of the TM mass bound to actin (0.06 mg/ml TMs, no 83-kD protein) (F-actin (rabbit)): 5% and 7%
stoichiometry N (F-actin (rabbit)): 6 actin per TM

83-kD nonmuscle caldesmon (from UniProt Q62736 1-531) (natural protein)
stoichiometry N (actin per 83-kD protein) [2]: 6
stoichiometry N (actin per 83-kD protein) [3]: 6
